Ends that are not written are not given here. HPMA copolymer = HPMA copolymer made by RAFT copolymerization of HPMA with N-(3-aminopropyl)methacrylamide (APMA), bearing maleimide groups for grafting
Test: Pharmacokinetics at each cycle of a four-round treatment regimen
Type: in vivo, female mice
Parameters: PK curves: unit not given here
Settings: for AUC0-t / AUC0-∞ / MRT0-t / MRT0-∞ / T1/2z: same

P-CM2-Cy3: Cy3-labeled P-CM2 (C(HPMA copolymer)YGGEVSALEKEVSALEKKNSALEKEVSALEKEVSALEK; also: Cy3 label on conjugate, position not given here)
PK curves (Round 3, Time 0.041667 Day, replicate 1): 171.135
PK curves (Round 3, Time 0.041667 Day, replicate 2): 180.496
PK curves (Round 3, Time 0.041667 Day, replicate 3): 188.668
PK curves (Round 3, Time 0.041667 Day, replicate 4): 205.584
PK curves (Round 3, Time 0.041667 Day, replicate 5): 224.681
PK curves (Round 3, Time 0.083333 Day, replicate 1): 156.708
PK curves (Round 3, Time 0.083333 Day, replicate 2): 161.465
PK curves (Round 3, Time 0.083333 Day, replicate 3): 162.063
PK curves (Round 3, Time 0.083333 Day, replicate 4): 168.293
PK curves (Round 3, Time 0.083333 Day, replicate 5): 190.32
PK curves (Round 3, Time 0.166667 Day, replicate 1): 118.152
PK curves (Round 3, Time 0.166667 Day, replicate 2): 137.258
PK curves (Round 3, Time 0.166667 Day, replicate 3): 138.998
PK curves (Round 3, Time 0.166667 Day, replicate 4): 139.637
PK curves (Round 3, Time 0.166667 Day, replicate 5): 146.663
PK curves (Round 3, Time 0.25 Day, replicate 1): 101.928
PK curves (Round 3, Time 0.25 Day, replicate 2): 105.033
PK curves (Round 3, Time 0.25 Day, replicate 3): 108.293
PK curves (Round 3, Time 0.25 Day, replicate 4): 115.298
PK curves (Round 3, Time 0.25 Day, replicate 5): 119.681
PK curves (Round 3, Time 0.333333 Day, replicate 1): 71.2229
PK curves (Round 3, Time 0.333333 Day, replicate 2): 72.9543
PK curves (Round 3, Time 0.333333 Day, replicate 3): 93.0071
PK curves (Round 3, Time 0.333333 Day, replicate 4): 101.069
PK curves (Round 3, Time 0.333333 Day, replicate 5): 102.809
PK curves (Round 3, Time 0.5 Day, replicate 1): 54.5332
PK curves (Round 3, Time 0.5 Day, replicate 2): 55.1656
PK curves (Round 3, Time 0.5 Day, replicate 3): 58.857
PK curves (Round 3, Time 0.5 Day, replicate 4): 63.5997
PK curves (Round 3, Time 0.5 Day, replicate 5): 67.2877
PK curves (Round 3, Time 1 Day, replicate 1): 18.8846
PK curves (Round 3, Time 1 Day, replicate 2): 19.9794
PK curves (Round 3, Time 1 Day, replicate 3): 34.0857
PK curves (Round 3, Time 1 Day, replicate 4): 37.3031
PK curves (Round 3, Time 1 Day, replicate 5): 39.9731
PK curves (Round 3, Time 2 Day, replicate 1): 13.6659
PK curves (Round 3, Time 2 Day, replicate 2): 15.2182
PK curves (Round 3, Time 2 Day, replicate 3): 16.959
PK curves (Round 3, Time 2 Day, replicate 4): 18.4095
PK curves (Round 3, Time 2 Day, replicate 5): 23.265
PK curves (Round 3, Time 3 Day, replicate 1): 5.299
PK curves (Round 3, Time 3 Day, replicate 2): 5.6755
PK curves (Round 3, Time 3 Day, replicate 3): 6.127
PK curves (Round 3, Time 3 Day, replicate 4): 11.4512
PK curves (Round 3, Time 3 Day, replicate 5): 11.8082
AUC0-t (Round 3): 2847.475 ± 463.394 ng·h/mL
AUC0-∞ (Round 3): 3060.689 ± 565.511 ng·h/mL
MRT0-t (Round 3): 17.779 ± 1.27 h
MRT0-∞ (Round 3): 23.927 ± 3.854 h
T1/2z (Round 3): 19.193 ± 3.042 h
PK curves (Round 4, Time 0.041667 Day, replicate 1): 230.725
PK curves (Round 4, Time 0.041667 Day, replicate 2): 194.218
PK curves (Round 4, Time 0.041667 Day, replicate 3): 209.902
PK curves (Round 4, Time 0.041667 Day, replicate 4): 229.24
PK curves (Round 4, Time 0.041667 Day, replicate 5): 229.61
PK curves (Round 4, Time 0.083333 Day, replicate 1): 173.583
PK curves (Round 4, Time 0.083333 Day, replicate 2): 157.544
PK curves (Round 4, Time 0.083333 Day, replicate 3): 163.249
PK curves (Round 4, Time 0.083333 Day, replicate 4): 167.214
PK curves (Round 4, Time 0.083333 Day, replicate 5): 205.861
PK curves (Round 4, Time 0.166667 Day, replicate 1): 141.479
PK curves (Round 4, Time 0.166667 Day, replicate 2): 127.721
PK curves (Round 4, Time 0.166667 Day, replicate 3): 129.082
PK curves (Round 4, Time 0.166667 Day, replicate 4): 138.936
PK curves (Round 4, Time 0.166667 Day, replicate 5): 150.211
PK curves (Round 4, Time 0.25 Day, replicate 1): 117.333
PK curves (Round 4, Time 0.25 Day, replicate 2): 116.423
PK curves (Round 4, Time 0.25 Day, replicate 3): 120.111
PK curves (Round 4, Time 0.25 Day, replicate 4): 124.299
PK curves (Round 4, Time 0.25 Day, replicate 5): 125.432
PK curves (Round 4, Time 0.333333 Day, replicate 1): 69.1458
PK curves (Round 4, Time 0.333333 Day, replicate 2): 73.8277
PK curves (Round 4, Time 0.333333 Day, replicate 3): 84.2185
PK curves (Round 4, Time 0.333333 Day, replicate 4): 100.254
PK curves (Round 4, Time 0.333333 Day, replicate 5): 118.152
PK curves (Round 4, Time 0.5 Day, replicate 1): 43.1042
PK curves (Round 4, Time 0.5 Day, replicate 2): 47.0545
PK curves (Round 4, Time 0.5 Day, replicate 3): 50.0192
PK curves (Round 4, Time 0.5 Day, replicate 4): 54.418
PK curves (Round 4, Time 0.5 Day, replicate 5): 70.7604
PK curves (Round 4, Time 1 Day, replicate 1): 21.2271
PK curves (Round 4, Time 1 Day, replicate 2): 23.1099
PK curves (Round 4, Time 1 Day, replicate 3): 27.0861
PK curves (Round 4, Time 1 Day, replicate 4): 30.0884
PK curves (Round 4, Time 1 Day, replicate 5): 41.0104
PK curves (Round 4, Time 2 Day, replicate 1): 4.911
PK curves (Round 4, Time 2 Day, replicate 2): 16.8258
PK curves (Round 4, Time 2 Day, replicate 3): 17.3047
PK curves (Round 4, Time 2 Day, replicate 4): 21.1219
PK curves (Round 4, Time 2 Day, replicate 5): 21.2086
PK curves (Round 4, Time 3 Day, replicate 1): 3.457
PK curves (Round 4, Time 3 Day, replicate 2): 6.287
PK curves (Round 4, Time 3 Day, replicate 3): 7.344
PK curves (Round 4, Time 3 Day, replicate 4): 8.892
PK curves (Round 4, Time 3 Day, replicate 5): 12.3135
AUC0-t (Round 4): 2805.642 ± 501.797 ng·h/mL
AUC0-∞ (Round 4): 3022.978 ± 666.243 ng·h/mL
MRT0-t (Round 4): 16.883 ± 2.739 h
MRT0-∞ (Round 4): 22.801 ± 5.68 h
T1/2z (Round 4): 18.712 ± 5.773 h

From article PMC10980815, “Cell surface patching via CXCR4-targeted nanothreads for cancer metastasis inhibition” (Nature Communications, 2024)
